These results are taken from patent publication US20220406376A1 (MacroGenics, published 2022).

The target in test [1] is T1, extracellular portion of human CD137 fused to a histidine-containing peptide (human, UniProt Q07011 24-186).
T1 construct: extracellular domain; also called huCD137; His-tagged soluble human CD137
Put plainly: Attana Cell A200 QCM; antibody captured by anti-human IgG Fc; soluble human CD137-His; grade relative to (1B.3).

Test [2] addresses T2, HER2/neu on the surface of target cells (N87, JIMT-1, MCF-7, MDA-MB231) (UniProt P04626 23-1255, limits assumed).
T2 construct: whole, on cells
The experiment in a line: flow cytometry on MCF-7 cells, anti-hFc APC MFI.

Test [3] deals with T2, HER2/neu on the surface of target cells …. Put plainly: flow cytometry on JIMT-1 cells, anti-hFc APC MFI. In general terms: In flow cytometry, cells or beads pass a laser one at a time.
Test [4] has the same target. The experiment in a line: flow cytometry on N87 cells, anti-hFc APC MFI.

B1: hCD137 MAB-3 (1B.4) (antibody, V domains shown)
VH: QVQLVQSGAEVKKPGASVKVSCKASGYTFTSYWINWVKQAPGQGLEWIGNIYPSDSYTNYNQKFKDKATITADKSTSTAYMELSSLRSEDTAVYYCTRDYGSAYSMSTWGQGTTVTVSS
VL: DIQMTQSPSSLSASVGDRVTITCQASQDISNYLNWYQQKPDKTVKLLIYYTSRLRSGVPSRFSGSGSGTDFTFTISSLQPEDIATYFCQQGDTLPYTFGQGTKLEIK
B1: in test [1], the binding result was “binds”.

B2: hCD137 MAB-3 (1E.14) (antibody, V domains shown)
VH: QVQLVQSGAEVKKPGASVKVSCKASGYTFTSYWINWVRQAPGQGLEWIGNIYPSDSYTNYNQKFKDKATITADKSTSTAYMELSSLRSEDTAVYYCTRDYGSAYSMSTWGQGTTVTVSS
VL: DIQMTQSPSSLSASVGDRVTITCQASQDISNYLNWYQQKPDKTVKLLIYYTTRARSGVPSRFSGSGSGTDFTFTISSLQPEDIATYFCQQGDTLPYTFGQGTKLEIK
Turning to B2, the binding result in test [1] is on record as “binds”.

B3: hCD137 MAB-3 (1E.4) (antibody, V domains shown)
VH: QVQLVQSGAEVKKPGASVKVSCKASGYTFTSYWINWVRQAPGQGLEWIGNIYPSDSYTNYNQKFKDKATITADKSTSTAYMELSSLRSEDTAVYYCTRDYGSAYSMSTWGQGTTVTVSS
VL: DIQMTQSPSSLSASVGDRVTITCQASQDISNYLNWYQQKPDKTVKLLIYYTSRLRSGVPSRFSGSGSGTDFTFTISSLQPEDIATYFCQQGDTLPYTFGQGTKLEIK
As for B3, the binding result in test [1] is “binds”.

B4: hCD137 MAB-3 (1B.5) (antibody, V domains shown)
VH: QVQLVQSGAEVKKPGASVKVSCKASGYTFTSYWINWVKQAPGQGLEWIGNIYPSDSYTNYNQKFKDKATITADKSTSTAYMELSSLRSEDTAVYYCTRDYGSAYSMSTWGQGTTVTVSS
VL: DIQMTQSPSSLSASVGDRVTITCRPSQDISNYLNWYQQKPDKTAKLLIYYTSRLRSGVPSRFSGSGSGTDFTFTISSLQPEDIATYFCQQGDTLPYTFGQGTKLEIK
On to B4, for which the binding result in test [1] is on record as “binds”.

B5: hCD137 MAB-3 (1G.4) (antibody, V domains shown)
VH: QVQLVQSGAEVKKPGASVKVSCKASGYTFTSYWINWVRQAPGQGLEWAGNIYPSDSYTNYNQKFKDKATITADKSTSTAYMELSSLRSEDTAVYYCTRDYGSAYSMSTWGQGTTVTVSS
VL: DIQMTQSPSSLSASVGDRVTITCQASQDISNYLNWYQQKPDKTVKLLIYYTSRLRSGVPSRFSGSGSGTDFTFTISSLQPEDIATYFCQQGDTLPYTFGQGTKLEIK
In the case of B5, the binding result in test [1] is reported as “binds”.

B6: hCD137 MAB-3 (1E.9) (antibody, V domains shown)
VH: QVQLVQSGAEVKKPGASVKVSCKASGYTFTSYWINWVRQAPGQGLEWIGNIYPSDSYTNYNQKFKDKATITADKSTSTAYMELSSLRSEDTAVYYCTRDYGSAYSMSTWGQGTTVTVSS
VL: DIQMTQSPSSLSASVGDRVTITCQASQDISNYLNWYQQKPDKTVKLLIYYTSRARSGVPSRFSGSGSGTDFTFTISSLQPEDIATYFCQQGDTLPYTFGQGTKLEIK
Turning to B6, the binding result in test [1] is “binds”.

B7: hCD137 MAB-3 (1B.6) (antibody, V domains shown)
VH: QVQLVQSGAEVKKPGASVKVSCKASGYTFTSYWINWVKQAPGQGLEWIGNIYPSDSYTNYNQKFKDKATITADKSTSTAYMELSSLRSEDTAVYYCTRDYGSAYSMSTWGQGTTVTVSS
VL: DIQMTQSPSSLSASVGDRVTITCRPSQDISNYLNWYQQKPDKTVKLLIYYTSRARSGVPSRFSGSGSGTDFTFTISSLQPEDIATYFCQQGDTLPYTFGQGTKLEIK
Take B7: the binding result in test [1] is reported as “binds”.

B8: hCD137 MAB-3 (1E.3) (antibody, V domains shown)
VH: QVQLVQSGAEVKKPGASVKVSCKASGYTFTSYWINWVRQAPGQGLEWIGNIYPSDSYTNYNQKFKDKATITADKSTSTAYMELSSLRSEDTAVYYCTRDYGSAYSMSTWGQGTTVTVSS
VL: DIQMTQSPSSLSASVGDRVTITCRPSQDISNYLNWYQQKPDKTVKLLIYYTSRLRSGVPSRFSGSGSGTDFTFTISSLQPEDIATYFCQQGDTLPYTFGQGTKLEIK
As for B8, the binding result in test [1] is given as “binds”.

B9: hCD137 MAB-3 (1B.13) (antibody, V domains shown)
VH: QVQLVQSGAEVKKPGASVKVSCKASGYTFTSYWINWVKQAPGQGLEWIGNIYPSDSYTNYNQKFKDKATITADKSTSTAYMELSSLRSEDTAVYYCTRDYGSAYSMSTWGQGTTVTVSS
VL: DIQMTQSPSSLSASVGDRVTITCRPSQDISNYLNWYQQKPDKTVKLLAYYTGRLRSGVPSRFSGSGSGTDFTFTISSLQPEDIATYFCQQGDTLPYTFGQGTKLEIK
For the molecule B9, the binding result in test [1] is on record as “binds”.

B10: hCD137 MAB-3 (1G.8) (antibody, V domains shown)
VH: QVQLVQSGAEVKKPGASVKVSCKASGYTFTSYWINWVRQAPGQGLEWAGNIYPSDSYTNYNQKFKDKATITADKSTSTAYMELSSLRSEDTAVYYCTRDYGSAYSMSTWGQGTTVTVSS
VL: DIQMTQSPSSLSASVGDRVTITCQASQDISNYLNWYQQKPDKTAKLLIYYTSRARSGVPSRFSGSGSGTDFTFTISSLQPEDIATYFCQQGDTLPYTFGQGTKLEIK
Turning to B10, the binding result in test [1] is recorded as “binds”.

B11: hCD137 MAB-3 (1G.7) (antibody, V domains shown)
VH: QVQLVQSGAEVKKPGASVKVSCKASGYTFTSYWINWVRQAPGQGLEWAGNIYPSDSYTNYNQKFKDKATITADKSTSTAYMELSSLRSEDTAVYYCTRDYGSAYSMSTWGQGTTVTVSS
VL: DIQMTQSPSSLSASVGDRVTITCQASQDISNYLNWYQQKPDKTAKLLIYYTSRLRSGVPSRFSGSGSGTDFTFTISSLQPEDIATYFCQQGDTLPYTFGQGTKLEIK
Regarding B11, the binding result in test [1] was “binds”.

B12: hCD137 MAB-3 (1G.14) (antibody, V domains shown)
VH: QVQLVQSGAEVKKPGASVKVSCKASGYTFTSYWINWVRQAPGQGLEWAGNIYPSDSYTNYNQKFKDKATITADKSTSTAYMELSSLRSEDTAVYYCTRDYGSAYSMSTWGQGTTVTVSS
VL: DIQMTQSPSSLSASVGDRVTITCQASQDISNYLNWYQQKPDKTVKLLIYYTTRARSGVPSRFSGSGSGTDFTFTISSLQPEDIATYFCQQGDTLPYTFGQGTKLEIK
B12: in test [1], the binding result is recorded as “binds”.

B13: hCD137 MAB-3 (1B.10) (antibody, V domains shown)
VH: QVQLVQSGAEVKKPGASVKVSCKASGYTFTSYWINWVKQAPGQGLEWIGNIYPSDSYTNYNQKFKDKATITADKSTSTAYMELSSLRSEDTAVYYCTRDYGSAYSMSTWGQGTTVTVSS
VL: DIQMTQSPSSLSASVGDRVTITCRPSQDISNYLNWYQQKPDKTVKLLIYYTTRLRSGVPSRFSGSGSGTDFTFTISSLQPEDIATYFCQQGDTLPYTFGQGTKLEIK
Consider B13, for which the binding result in test [1] is reported as “binds”.

B14: hCD137 MAB-3 (1F.3) (antibody, V domains shown)
VH: QVQLVQSGAEVKKPGASVKVSCKASGYTFTSYWINWVKQAPGQGLEWAGNIYPSDSYTNYNQKFKDKATITADKSTSTAYMELSSLRSEDTAVYYCTRDYGSAYSMSTWGQGTTVTVSS
VL: DIQMTQSPSSLSASVGDRVTITCRPSQDISNYLNWYQQKPDKTVKLLIYYTSRLRSGVPSRFSGSGSGTDFTFTISSLQPEDIATYFCQQGDTLPYTFGQGTKLEIK
On to B14, for which the binding result in test [1] is reported as “binds”.

B15: hCD137 MAB-3 (1B.11) (antibody, V domains shown)
VH: QVQLVQSGAEVKKPGASVKVSCKASGYTFTSYWINWVKQAPGQGLEWIGNIYPSDSYTNYNQKFKDKATITADKSTSTAYMELSSLRSEDTAVYYCTRDYGSAYSMSTWGQGTTVTVSS
VL: DIQMTQSPSSLSASVGDRVTITCRPSQDISNYLNWYQQKPDKTVKLLIYYTGRLRSGVPSRFSGSGSGTDFTFTISSLQPEDIATYFCQQGDTLPYTFGQGTKLEIK
Turning to B15, the binding result in test [1] is “binds”.

B16: TRIDENT-2 (other)
chain 1: DIQMTQSPSTLSASVGDRVTITCRASQSVGYMHWYQQKPGKAPKLLIYDTSKLASGVPSRFSGSGSGTEFTLTISSLQPDDFATYYCFQGSGYPFTFGGGTKLEIKGGGSGGGGEVKLDETGGGLVQPGRPMKLSCVASGFTFSDYWMNWVRQSPEKGLEWVAQIRNKPYNYETYYSDSVKGRFTISRDDSKSSVYLQMNNLRVEDMGIYYCTGSYYGMDYWGQGTSVTVSSASTKGEVAACEKEVAALEKEVAALEKEVAALEKGGGDKTHTCPPCPAPEAAGGPSVFLFPPKPKDTLMISRTPEVTCVVVDVSHEDPEVKFNWYVDGVEVHNAKTKPREEQYNSTYRVVSVLTVLHQDWLNGKEYKCKVSNKALPAPIEKTISKAKGQPREPQVYTLPPSREEMTKNQVSLWCLVKGFYPSDIAVEWESNGQPENNYKTTPPVLDSDGSFFLYSKLTVDKSRWQQGNVFSCSVMHEALHNHYTQKSLSLSPGK
chain 2: DVVMTQTPFSLPVSLGDQASISCRSSQSLVHSNGNTYLRWYLQKPGQSPKVLIYKVSNRFSGVPDRFSGSGSGTDFTLKISRVEAEDLGVYFCSQSTHVPWTFGGGTKLEIKGGGSGGGGQVTLRESGPALVKPTQTLTLTCTFSGFSLSTSGMSVGWIRQPPGKALEWLADIWWDDKKDYNPSLKSRLTISKDTSKNQVVLKVTNMDPADTATYYCARSMITNWYFDVWGAGTTVTVSSASTKGKVAACKEKVAALKEKVAALKEKVAALKE
heavy: QVQLVQSGAEVKKPGASVKVSCKASGYTFTNYGMNWVRQAPGQGLEWMGWINTNIGEPTYTEEFKGRVTMTRDTSISTAYMELSRLRSDDTAVYYCARDDGYGNRVSYWGQGTLVTVSSASTKGPSVFPLAPSSKSTSGGTAALGCLVKDYFPEPVTVSWNSGALTSGVHTFPAVLQSSGLYSLSSVVTVPSSSLGTQTYICNVNHKPSNTKVDKRVEPKSCDKTHTCPPCPAPEAAGGPSVFLFPPKPKDTLMISRTPEVTCVVVDVSHEDPEVKFNWYVDGVEVHNAKTKPREEQYNSTYRVVSVLTVLHQDWLNGKEYKCKVSNKALPAPIEKTISKAKGQPREPQVYTLPPSREEMTKNQVSLSCAVKGFYPSDIAVEWESNGQPENNYKTTPPVLDSDGSFFLVSKLTVDKSRWQQGNVFSCSVMHEALHNRYTQKSLSLSPGK
light: DIQMTQSPSSLSASVGDRVTITCKASQDISNYLSWFQQKPGKAPKTLIYRANRLQSGVPSRFSGSGSGTDFTLTISSLQPEDFATYYCLQHDEFPWTFGQGTKLEIKRTVAAPSVFIFPPSDEQLKSGTASVVCLLNNFYPREAKVQWKVDNALQSGNSQESVTEQDSKDSTYSLSSTLTLSKADYEKHKVYACEVTHQGLSSPVTKSFNRGEC
notes: also called RSV×FITC×HER2 control molecule; TA×FITC×RSV control molecule
One may read the EC50 (read off the curve) as the concentration that produces a half-maximal response. Read a low EC50 (read off the curve) as greater potency. On to B16, for which the results for the “EC50 (read off the curve)” value in test [2], in test [3] and in test [4] were around 0.2 nM, around 0.7 nM and around 1 nM, respectively.
